Measurements: patent US20110105397A1, “METHOD FOR TREATING HEART FAILURE WITH STRESSCOPIN-LIKE PEPTIDES” (priority 2009, published 2011)
Read-outs that look alike come from different tables or passages of the source. Where no end group is shown, it is not given here.

Columns and labels:
[1] = biological target: T1, human CRHR2 (Homo sapiens, UniProt Q13324); assay: cAMP assay, h-CRHR2 transfected SK-N-MC cells; assay type: cell-based; details: for EC50: read-out: pA50 (converted); for Log DR [M]: h-SCP control pA50 minus test compound pA50 within the same assay batch
T1 construct: expressed in transfected cells
T1 sequence (Q13324 1-411): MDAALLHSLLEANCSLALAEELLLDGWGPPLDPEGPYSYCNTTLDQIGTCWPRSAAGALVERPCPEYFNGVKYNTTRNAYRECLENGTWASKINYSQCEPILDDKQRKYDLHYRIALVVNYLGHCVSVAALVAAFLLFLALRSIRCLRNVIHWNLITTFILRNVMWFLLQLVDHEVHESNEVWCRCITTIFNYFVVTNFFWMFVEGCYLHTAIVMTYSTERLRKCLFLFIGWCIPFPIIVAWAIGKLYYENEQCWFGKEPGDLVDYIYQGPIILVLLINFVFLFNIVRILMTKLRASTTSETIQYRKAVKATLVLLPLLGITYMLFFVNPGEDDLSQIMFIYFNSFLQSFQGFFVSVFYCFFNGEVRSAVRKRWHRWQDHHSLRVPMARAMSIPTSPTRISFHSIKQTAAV
Method in brief: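 Intracellular cAMP was quantified by radioligand competition against a cAMP standard curve after HCl lysis of h-CRHR2-transfected SK-N-MC cells. These cells had been exposed to peptides from 1 pM to 1 μM for 1 h at 37 °C with IBMX. Responses were scaled to the daily h-SCP maximum and fitted to the Hill equation to give A50/pA50.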

[2] = biological target: T2, human corticotrophin releasing hormone receptor type 2 (CRHR2) (human, UniProt Q13324 1-411); assay: cell-based or functional assay
T2 sequence (looked up): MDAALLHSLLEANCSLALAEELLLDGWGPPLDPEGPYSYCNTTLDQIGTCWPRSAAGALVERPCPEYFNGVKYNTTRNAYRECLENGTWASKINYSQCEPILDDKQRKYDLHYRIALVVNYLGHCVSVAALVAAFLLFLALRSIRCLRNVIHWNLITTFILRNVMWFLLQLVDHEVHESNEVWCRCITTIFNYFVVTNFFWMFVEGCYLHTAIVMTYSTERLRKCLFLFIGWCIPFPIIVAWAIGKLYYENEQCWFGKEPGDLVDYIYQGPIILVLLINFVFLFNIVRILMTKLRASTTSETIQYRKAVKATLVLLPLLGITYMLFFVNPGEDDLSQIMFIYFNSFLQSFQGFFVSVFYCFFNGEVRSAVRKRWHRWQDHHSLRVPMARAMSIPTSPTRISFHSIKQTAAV

[3] = biological target: T3, human corticotrophin releasing hormone receptor type 1 (CRHR1) (human, UniProt P34998 24-415); assay: cell-based or functional assay
T3 sequence (looked up): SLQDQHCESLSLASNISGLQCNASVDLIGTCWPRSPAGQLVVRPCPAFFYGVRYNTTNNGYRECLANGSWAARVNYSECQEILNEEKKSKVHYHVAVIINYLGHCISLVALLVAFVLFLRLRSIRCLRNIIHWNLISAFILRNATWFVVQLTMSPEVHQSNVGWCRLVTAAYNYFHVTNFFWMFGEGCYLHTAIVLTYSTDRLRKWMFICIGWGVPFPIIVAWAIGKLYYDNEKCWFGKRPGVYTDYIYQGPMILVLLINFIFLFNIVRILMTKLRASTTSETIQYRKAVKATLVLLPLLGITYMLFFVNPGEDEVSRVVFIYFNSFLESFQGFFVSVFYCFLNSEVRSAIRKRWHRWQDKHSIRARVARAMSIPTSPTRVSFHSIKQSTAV

[4] = biological target: T4, human corticotrophin releasing hormone receptor type 2 (CRHR2) (human) (UniProt Q13324); assay: cell-based or functional assay
T4 sequence (looked up): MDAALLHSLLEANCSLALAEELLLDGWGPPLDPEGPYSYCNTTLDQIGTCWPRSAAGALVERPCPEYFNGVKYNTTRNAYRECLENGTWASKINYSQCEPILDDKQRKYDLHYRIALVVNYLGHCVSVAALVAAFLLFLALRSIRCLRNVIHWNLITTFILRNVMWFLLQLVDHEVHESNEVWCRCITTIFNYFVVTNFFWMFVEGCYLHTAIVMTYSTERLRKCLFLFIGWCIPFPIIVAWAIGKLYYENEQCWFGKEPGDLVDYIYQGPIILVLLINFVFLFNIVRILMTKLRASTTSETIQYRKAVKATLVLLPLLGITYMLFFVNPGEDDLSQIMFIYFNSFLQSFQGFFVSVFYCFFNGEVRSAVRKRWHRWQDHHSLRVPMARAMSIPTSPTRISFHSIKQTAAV

[5] = biological target: T4, human corticotrophin releasing hormone receptor type 2 (CRHR2) (human); assay: radioligand competition against [125I]-anti-sauvagine-30, membranes of SK-N-MC cells with human CRHR2
[6] = biological target: T3, human corticotrophin releasing hormone …; assay: radioligand competition against [125I]-(Tyr0)-sauvagine, CRHR1 assay, cell membranes
Procedure: Frozen cell pellets were defrosted on ice in 15 ml of assay buffer that was composed of 10 mM HEPES, 130 mM NaCl, 4.7 mM KCl, 5 mM MgCl₂, and 0.089 mM bacitracin at pH 7.2 and 21±3° Celsius. The solution was then homogenized with a Polytron tissue grinder at a setting of 10 and 7×3 s (Brinkmann Instruments, Westbury, N.Y.). The homogenate was centrifuged at 4° Celsius at 800×g for 5 min with the pellet being discarded. The supernatant was re-centrifuged at 26,892×g for 25 min at 4° Celsius with the final pellet being re-suspended in assay buffer. All binding assays were conducted in 96-well Multiscreen GF/B filter plates (Millipore, Billericay, Mass., U.S.A.) that were pre-soaked in assay buffer with 0.3% PEI for 1 hour. […]
The bound radioactivity was separated by filtration using a Multiscreen Resist manifold (Millipore Corp., Billerica, Mass., U.S.A). The filters were washed three times with ice-cold PBS at pH 7.5 and radioactivity retained on the filters was quantified by its liquid scintillation measured by a TopCount counter (Packard BioScience, Boston, Mass., U.S.A). […]
Data from individual competition curves were expressed as the percentage of specific [¹²⁵I]-anti-sauvagine-30 or)[¹²⁵I]-(Tyr⁰-sauvagine binding (B) within each experiment.

[7] = Table 13, cysteine mutation, N-ethylmaleimide capping, pegylation

TKFTLSLDVPTNIMNLLFNIAKCKNLRAQAAANAHLMAQI-NH2 [SEQ ID NO: 24, TKFTLSLDVPTNIMNLLFNIAKCKNLRAQAAANAHLMAQI-NH2]
EC50 [1, 7]: 1.15 nM
Log DR [M] ([1]; Table 13): 0.74

TKFTLSLDVPTNIMNLLFNICKAKNLRAQAAANAHLMAQI-NH2 [SEQ ID NO: 22, TKFTLSLDVPTNIMNLLFNICKAKNLRAQAAANAHLMAQI-NH2]
EC50 [1, 7]: 0.676 nM
Log DR [M] ([1]; Table 13): 0.52

TLSLDVPTNIMNLLFNIAKAKNLRAQAAANAHLMAQI-NH2 [SEQ ID NO: 108, TLSLDVPTNIMNLLFNIAKAKNLRAQAAANAHLMAQI-NH2]
nH ([1]; Table 12): 0.82
EC50 ([1]; Table 12, amidation and N-terminal deletions, normalized to maximum response to h-SCP, 3-5 replicate experiments): 3.24 nM
αmax ([1]; Table 12, normalized to the maximum response to h-SCP): 106.3

LSLDVPTNIMNLLFNIAKAKNLRAQAAANAHLMAQI-NH2 [Stresscopin-like peptide with shortened amino acid sequence, 36 aa, SEQ ID NO: 109]
pA50 [2]: 7.34 -log10(M)

IVLSLDVPIGLLQILLEQARARAAREQATTNARILARV-NH2 [human urocortin 2]
pA50 [3]: 6.02 -log10(M)
pA50 [4]: 9.51 -log10(M)
pKI [5]: 7.74 -log10(M)

TLSLDVPTNIMNLLFNIAKAKNLRAQAAANAHLMAQI-NH2 [Stresscopin-like peptide with shortened amino acid sequence, 37 aa, SEQ ID NO: 108]
pA50 [2]: 8.49 -log10(M)

KFTLSLDVPTNIMNLLFNIAKAKNLRAQAAANAHLMAQI-NH2 [Stresscopin-like peptide with shortened amino acid sequence, 39 aa, SEQ ID NO: 107]
pA50 [2]: 9.25 -log10(M)

FHLLRKMIEIEKQEKEKQQAANNRLLLDTI-NH2 (also called SV30; AS-30) [anti-sauvagine-30]
pA2 (antagonism of the cAMP response to h-SCP) [4]: 7.82 -log10(M)
pKI [5]: 7.78 -log10(M)
pKI [6]: 5.81 -log10(M)
